Measurements from patent US20110305703A1, “ISOLATED VEGF-C AND VEGF-D PEPTIDES AND USES THEREOF” (Vegenics Pty Limited, priority 2008, published 2011).

Test system: VDnmAb
Assay: Western blot of conditioned media containing VEGF-DΔNΔC variants probed with VDnmAb
Type: binding
Conditions: conditioned media of 293-F cells; in comparison to VEGF-DΔNΔC
From the text: Site-directed mutagenesis. DNA encoding VEGF-DΔNΔC, a form of mature human VEGF-D tagged at the N-terminus with the FLAG octapeptide (FIG. 11; SEQ ID NO: 145), was subjected to site-directed mutagenesis by PCR to generate VEGF-DΔNΔC variants. Mutations were introduced by amplification with the following primers: N147Q with 5'-[…] NO: 146) and 5'-[…] with 5'-[…] NO: 148) and 5'-[…] with 5'-[…] NO: 150) and 5'-[…] with 5'-[…] NO: 152) and 5'-[…] with 5'-[…] NO: 154) and 5'-[…] with 5'-[…] NO: 156) and 5'-[…] with 5'-[…] NO: 158) and 5'-[…] NO: 159) (FIG. 12). The desired mutations, as well as the absence of any unwanted mutations, in the resulting DNA fragments were confirmed by nucleotide sequencing. Expression of VEGF-DΔNΔC variants. Plasmids containing DNA encoding VEGF-DΔNΔC or its variants were used for transient transfection of 293-F cells with the FreeStyle MAX 293 Expression System according to manufacturer's instructions (Invitrogen). Cells expressing each variant were cultured in serum-free medium, and 30 ml of conditioned media was collected 7 days post-transfection and used for analysis. Western Blot Analysis. Conditioned media containing different variants of VEGF-DΔNΔC were resolved by SDS-PAGE, transferred to nitrocellulose membrane, probed with M2 anti-FLAG or VDnmAb antibodies labeled with IRDye 800CW according to manufacturer's instructions (LI-COR), and detected with an Odyssey Infrared Imaging System (LI-COR).

Molecule | VDnmAb binding to VEGF-DΔNΔC variant in Western blot
E148S: VEGF-DΔNΔC variant with mutation E148S (protein) DYKDDDDKFYDIETLKVIDEEWQRTQCSPRETCVEVASELGKSTNTFFKPPCVNVFRCGGCCNSESLICMNTSTSYISKQLFEISVPLTSVPELVPVKVANHTGCKCLPTAPRHPYS | complete loss of VDnmAb binding
E148S and S150G double mutation: VEGF-DΔNΔC variant containing both E148S and S150G (VEGF-C residues) (protein) DYKDDDDKFYDIETLKVIDEEWQRTQCSPRETCVEVASELGKSTNTFFKPPCVNVFRCGGCCNSEGLICMNTSTSYISKQLFEISVPLTSVPELVPVKVANHTGCKCLPTAPRHPYS | complete loss of VDnmAb binding
S150G/L151V: VEGF-DΔNΔC variant with double mutation S150G/L151V (mouse residues) (protein) MYREWVVVNVFMMLYVQLVQGSSNEHGPVKRSSQSTLERSEQQIRAASSLEELLRITHSEDWKLWRCRLRLKSFTSMDSRSASHRSTRFAATFYDIETLKVIDEEWQRTQCSPRETCVEVASELGKSTNTFFKPPCVNVFRCGGCCNEEGVICMNTSTSYISKQLFEISVPLTSVPELVPVKVANHTGCKCLPTAPRHPYSIIRRSIQIPEEDRCSHSKKLCPIDMLWDSNKCKCVLQEENPLAGTEDHSHLQEPALCGPHMMFDEDRCECVCKTPCPKDLIQHPKNCSCFECKESLETCCQKHKLFHPDTCSCEDRCPFHTRPCASGKTACAKHCRFPKEKRAAQGPHSRKNP | complete loss of VDnmAb binding
